This passage reports self-cleavage results from the RNAGym collection of RNA variant scans (doi:10.7554/elife.80360).

B1: HDV Ribozyme (parent)
chain: GGCCGGCAUGGUCCCAGCCUCCUCGCUGGCGCCGGCUGGGCAACAUUCCGAGGGGACCGUCCCCUCGGUAAUGGCGAAUGGGACCCA

The variants in the data set derive from B1. The data set is described as follows: self-cleavage, relative activity (ratio to wild type); higher = more cleavage; co-transcriptional.
On to C14G C86G, for which the self-cleavage amounted to 0.604. For C14G C86A the value was 1.03; for C15A A42G, 0.104. With C15A A42C, the self-cleavage turned out to be 0.122. For C14G C58U the value was 0.646. As for C15A C22A, the figure is 0.111; as for C15A C22U, 0.231; as for C15A C22G, 0.113. As for C14U C33A, the figure is 0.201; as for C14U C33G, 0.123; as for C14G C64A, 0.511.

On to C14G C64U, for which the self-cleavage stood at 0.516.

For the variant C14G C21A, the self-cleavage is 0.0504. As to C14G C21U, the self-cleavage turned out to be 0.113.

Take C14G C30A: the self-cleavage worked out at 0.0396. As for C15A G73C, the figure is 0.249; as for C14G G50U, 0.639.

Regarding C14G G50A, the self-cleavage is 1.15. For C14G C24A the value was 0.378; for C14G G55C, 0.665; for C14G G55U, 0.682. As for C14G G55A, the self-cleavage amounted to 0.59. As to C14G G54C, the self-cleavage worked out at 0.277. For C14G G54A the value was 0.639; for C14G G54U, 0.776.

As to C15A G38U, the self-cleavage worked out at 0. On to C15A G38C, for which the self-cleavage is 0.0831.

For C14U C32G, the self-cleavage amounted to 0.0462.

Consider C14U G52C, for which the self-cleavage came to 1.1. As for C14U G52A, the figure is 0.973.

Take C14U U37G: the self-cleavage came out at 0.199. Take C14U U47G: the self-cleavage is 0.939. Consider C14U U47C, for which the self-cleavage worked out at 1.13.

Turning to C14U C49A, the self-cleavage was 1.37. With C14U C49U, the self-cleavage amounted to 0.942. For C14G C61U the value was 0.598. On to C15A A78G, for which the self-cleavage was found to be 0.447. For C15A A78U, the self-cleavage is 0.0639. As for C14G C63G, the figure is 0.573; as for C14G C63U, 0.9; as for C14G A83G, 0.268.

C14G A83C: the self-cleavage amounted to 0. For C14U A70C the value was 1.02; for C14U A70U, 1.08; for C14U A70G, 0.931.

For C14U A51U, the self-cleavage is 1.14. On to C15A U60C, for which the self-cleavage was 0.538. As for C15A U60A, the figure is 0.623. For C15A U46A the value was 0.361. For C15A U46C, the self-cleavage is 0.653. As for C14U C19G, the figure is 0.0396; as for C14U C19U, 0.0723; as for C14U G39A, 0.284.

Regarding C14U G39C, the self-cleavage was 0.262. As for C14U C15A, the figure is 0.475; as for C14U C63G, 0.831. For C14U C63A, the self-cleavage amounted to 0.957.

Regarding C14U C63U, the self-cleavage is 0.927. For C14U C36A the value was 0.128; for C15A C19A, 0.147. Consider C14G G25C, for which the self-cleavage was 0.

As for C14G G25U, the self-cleavage amounted to 0.0504.

In the case of C14G G39U, the self-cleavage amounted to 0.237. For C14G G39C, the self-cleavage came out at 0.217. For C14G G39A the value was 0.277; for C14G C75U, 0.155; for C14G C75G, 0.0554.

C15G A43C: the self-cleavage is 0.0875. As to C14U G38A, the self-cleavage was 0.0652. On to C14U G38C, for which the self-cleavage amounted to 0.158. On to C14G G68A, for which the self-cleavage was 0.431.

On to C14U G17C, for which the self-cleavage was 0.156. Take C14U G17A: the self-cleavage was determined as 0.514. For C14U G17U, the self-cleavage amounted to 0.511. For the variant C14U G50A, the self-cleavage was determined as 1.01. As for C15A G52C, the figure is 0.655; as for C15A G52A, 0.708. For C15A C85U the value was 0.755; for C15A C85A, 0.623; for C15A U79C, 0.326. For C15A C61A the value was 0.831. Take C15A C75G: the self-cleavage was determined as 0.142. C14U A77C: the self-cleavage came out at 0.249. For C14U G82U the value was 0.494. As for C14U G82C, the figure is 0.415. In the case of C14G A51C, the self-cleavage was 0.712. As to C15A A77U, the self-cleavage is 0.302. As for C14G G52U, the figure is 0.391. For C15G A16C the value was 0.369.

With C14U C86A, the self-cleavage is 1.1.

For C14U C86G, the self-cleavage worked out at 1.12. As for C14U C86U, the figure is 0.875; as for C14G C57U, 0.665. Turning to C14G C57A, the self-cleavage amounted to 0.748.

Turning to C14G C57G, the self-cleavage turned out to be 0.782. For C15A U72A the value was 0.107; for C15A U72C, 0.208; for C15A U72G, 0.277.

As for C14G C36A, the self-cleavage came to 0.192. For C14G G53A the value was 0.86. As for C15A G34A, the figure is 0.0723; as for C14U G73A, 0.831.

In the case of C14U G73C, the self-cleavage is 0.252. With C14U C57A, the self-cleavage was 1.07. As for C14U G25U, the figure is 0.59; as for C14U G25A, 0.115; as for C14G G82A, 0.158.

For C14G G82U, the self-cleavage turned out to be 0.196. For C14G G82C the value was 0.525. For C14U A71G the value was 0.883. For C14U A71C the value was 0.831; for C14U A71U, 1.1; for C14U G76U, 1.14.

On to C14G G76A, for which the self-cleavage was 0.831. For C14G G76C the value was 0.731; for C14G G76U, 0.985.

On to C15A U65C, for which the self-cleavage amounted to 0.519. C15A U65A: the self-cleavage worked out at 0.388. With C14G G28C, the self-cleavage stood at 0.0415. As for C14G A56C, the figure is 0.646; as for C14U C66G, 0.884; as for C14U C66A, 0.877. As for C14U U72C, the figure is 0.532.

C15A U23C: the self-cleavage was determined as 0.748. As to C15G A56C, the self-cleavage was found to be 0.739. For C14G G34C the value was 0.138; for C14G G34U, 0.0594. For C14G A43U the value was 0.138. C14G A43C: the self-cleavage amounted to 0.0504. For C14G C41G, the self-cleavage was found to be 0.525. As for C14G C41U, the self-cleavage stood at 0.462. For C14G C66A the value was 0.665. For C14U G29A the value was 0.188; for C14U G29C, 0.0941. In the case of C15A G81U, the self-cleavage was 0.232. As to C15A G81C, the self-cleavage stood at 0.208. As for C14G G80A, the figure is 0.346; as for C14U C18G, 0.0875; as for C15A G40A, 0.77. As for C14G U69C, the figure is 0.519. For C14U A83G the value was 0.54; for C14U A83U, 0.378; for C15A C63A, 0.403. For C14G G59C, the self-cleavage is 0.969. Take C15A G28C: the self-cleavage amounted to 0.0449. As for C15A C48U, the figure is 0.54; as for C14G U37G, 0; as for C15A G76U, 0.919. For C14U C84G the value was 0.914; for C14U C84A, 0.643; for C14U C41U, 1.11. As for C14U, the figure is 1.09.

On to C14G, for which the self-cleavage was 0.724.

For C14U A87G, the self-cleavage was determined as 1.07. As for C14U C24U, the figure is 0.658. On to C14G C49A, for which the self-cleavage worked out at 0.35. As for C14G C33U, the self-cleavage worked out at 0.32. Turning to C14G C33G, the self-cleavage is 0. As to C15A U37A, the self-cleavage stood at 0.102. C14G U23G: the self-cleavage came out at 0.453. For the variant C14G U23C, the self-cleavage was 0.712.

Regarding C14U A56U, the self-cleavage amounted to 1.22.

In the case of C14U A56C, the self-cleavage is 1.44. As for C15A U20G, the figure is 0.19; as for C15A U20A, 0.0573; as for C14G U27A, 0.7. As to C15A G25C, the self-cleavage was 0.0692.
